How the values were obtained:
[1] = biological target: T1, collagen IV (Homo sapiens, UniProt P02462+P08572); test: Surface plasmon resonance, FOG fragments on immobilized collagen IV; type: binding; conditions: SPR; 12.5, 25, 50, 100 μg/ml
T1 construct: purchased Sigma; host or cells: human placenta (tissue-derived)
Experimental: Site directed mutagenesis was performed on the plasmid pGEX-6P-1-FOGfl that coded for the GST-FOGfl fusion protein. E. coli clones containing the plasmids with the desired substitutions were generated using the GeneTailor™ Site Directed Mutagenesis System (Invitrogen) following the manufacturers recommendations. The tagged proteins from E. coli lysates were bound to glutathione sepharose 4B (GE Healthcare) and eluted with 10 mM reduced L-glutathione (Sigma) in 50 mM TrisHCl (pH=8.0) after washing the matrix with PBS. Alternatively, for SPR measurements of FOG1-B and FOG1-A the GST-tag was removed by digesting the proteins with PreScission™ protease (GE Healthcare) while bound to the affinity matrix, which eluted the untagged FOG proteins.
Protein interactions were studied in a BIAcore 2000 system (BIAcore AB) using 10 mM HEPES, 100 mM NaCl, pH=7.4 as running buffer. A CM5 sensor chip was activated by a 4 min injection of 0.05M N-hydroxysuccinimid, 0.2 M N-ethyl-N-(3-dimethylaminopropyl)-carbodiimide hydrochloride in water. Collagen IV from human placenta (Sigma, 1 mg/ml in 0.1M NaAc) was diluted 1:25 in 10 mM NaAc (pH=5.2). Immediate injection of 3 μl at a flow rate of 5 μl/min lead to immobilization of 400 to 550 response units (RU) of collagen IV. Residual reactive groups were inactivated by 6 min injection of 1 M ethanolamine, 0.1 M NaHCO3, 0.5 M NaCl, 5 mM EDTA, pH=8.0. […]

[2] = tested on: collagen IV; test: Immunization of mice, anti-collagen IV antibody titer by ELISA; type: in vivo, BALB/c mice; conditions: sera of immunized mice compared to the buffer control
Experimental: Pathogen free 8 week old female BALB/c mice were immunized intra-peritoneally with an emulsion of 25-30 μg recombinant purified protein in 50 μl PBS and 50 μl Freund's incomplete adjuvant per dose at day 1, 7 and 14. Control mice were injected with 50 μl PBS and 50 μl Freund's incomplete adjuvant per dose. At day 21, serum samples of each group were collected and tested in ELISA. To absorb FOG reactive antibodies, 10 μl serum pool was diluted 1:50 in PBS, and incubated for 1 h with 1 mg GST-FOGfl protein immobilized on glutathione sepharose 4B. Antibodies that bound to the affinity matrix were removed by centrifugation. The supernatant was subjected to ELISA analysis.
To determine anti-collagen CIV antibody titers, 96 well plates (Greiner, Frickenhausen, Germany) were coated over night at 4° C. with anti-human collagen IV rabbit polyclonal antibody (Progen, Heidelberg, Germany) diluted 1:100 in 0.1 M NaHCO3 (pH=9.6), blocked with 2% bovine serum albumin (BSA) in PBST and incubated with collagen IV (2 μg/ml in PBS) for 1 h at 37° C. […] After washing, bound antibodies were detected using suitable horseradish peroxidase coupled secondary anti-serum (goat anti-mouse IgG,M, Jackson Laboratories; rabbit anti-human IgG, A, M, Sigma-Aldrich) and 2,2-azino-di-[3-ethylbenzthiazoline sulfonate]diammonium salt (ABTS tablets, Boehringer, Mannheim, Germany) as substrate. […]

T1 sequence (P02462 173-1669): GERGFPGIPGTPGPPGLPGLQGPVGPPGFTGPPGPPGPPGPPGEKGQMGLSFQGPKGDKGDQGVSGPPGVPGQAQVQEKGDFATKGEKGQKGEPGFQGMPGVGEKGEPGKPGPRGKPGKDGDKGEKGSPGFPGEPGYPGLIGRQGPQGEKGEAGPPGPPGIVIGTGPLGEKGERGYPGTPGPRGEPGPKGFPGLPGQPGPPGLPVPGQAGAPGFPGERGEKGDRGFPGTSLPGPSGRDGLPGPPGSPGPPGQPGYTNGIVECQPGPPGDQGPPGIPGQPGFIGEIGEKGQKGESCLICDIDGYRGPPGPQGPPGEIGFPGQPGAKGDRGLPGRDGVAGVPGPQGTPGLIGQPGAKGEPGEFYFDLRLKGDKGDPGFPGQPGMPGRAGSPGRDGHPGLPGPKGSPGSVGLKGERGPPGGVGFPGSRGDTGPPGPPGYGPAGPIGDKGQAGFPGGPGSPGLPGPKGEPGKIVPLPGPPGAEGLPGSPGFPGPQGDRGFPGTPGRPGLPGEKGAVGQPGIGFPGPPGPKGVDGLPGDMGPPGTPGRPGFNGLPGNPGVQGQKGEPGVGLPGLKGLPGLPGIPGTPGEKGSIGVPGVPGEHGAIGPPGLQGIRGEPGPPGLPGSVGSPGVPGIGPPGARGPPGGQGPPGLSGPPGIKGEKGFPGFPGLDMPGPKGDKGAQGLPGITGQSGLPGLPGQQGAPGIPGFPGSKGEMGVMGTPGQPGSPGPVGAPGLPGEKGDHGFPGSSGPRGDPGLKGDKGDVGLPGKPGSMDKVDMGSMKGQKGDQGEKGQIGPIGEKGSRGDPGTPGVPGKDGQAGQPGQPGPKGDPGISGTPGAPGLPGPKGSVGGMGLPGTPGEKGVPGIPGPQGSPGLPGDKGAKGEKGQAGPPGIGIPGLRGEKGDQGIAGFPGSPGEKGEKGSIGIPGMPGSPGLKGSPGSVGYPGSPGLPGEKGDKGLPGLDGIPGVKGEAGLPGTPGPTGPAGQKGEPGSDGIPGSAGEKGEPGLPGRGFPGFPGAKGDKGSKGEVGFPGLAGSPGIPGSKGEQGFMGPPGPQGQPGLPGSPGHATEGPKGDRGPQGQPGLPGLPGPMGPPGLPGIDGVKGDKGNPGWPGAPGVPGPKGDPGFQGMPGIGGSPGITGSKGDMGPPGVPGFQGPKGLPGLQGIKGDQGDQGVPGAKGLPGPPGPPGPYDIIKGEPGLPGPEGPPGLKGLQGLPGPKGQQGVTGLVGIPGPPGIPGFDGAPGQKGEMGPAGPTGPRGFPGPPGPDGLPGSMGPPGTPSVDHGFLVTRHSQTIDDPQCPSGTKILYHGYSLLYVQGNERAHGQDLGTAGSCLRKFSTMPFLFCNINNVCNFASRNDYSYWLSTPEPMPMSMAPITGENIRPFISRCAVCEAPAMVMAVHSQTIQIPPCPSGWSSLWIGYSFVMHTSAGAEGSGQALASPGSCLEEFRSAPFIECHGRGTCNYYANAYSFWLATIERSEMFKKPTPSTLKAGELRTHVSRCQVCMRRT
T1 sequence (P08572 184-1712): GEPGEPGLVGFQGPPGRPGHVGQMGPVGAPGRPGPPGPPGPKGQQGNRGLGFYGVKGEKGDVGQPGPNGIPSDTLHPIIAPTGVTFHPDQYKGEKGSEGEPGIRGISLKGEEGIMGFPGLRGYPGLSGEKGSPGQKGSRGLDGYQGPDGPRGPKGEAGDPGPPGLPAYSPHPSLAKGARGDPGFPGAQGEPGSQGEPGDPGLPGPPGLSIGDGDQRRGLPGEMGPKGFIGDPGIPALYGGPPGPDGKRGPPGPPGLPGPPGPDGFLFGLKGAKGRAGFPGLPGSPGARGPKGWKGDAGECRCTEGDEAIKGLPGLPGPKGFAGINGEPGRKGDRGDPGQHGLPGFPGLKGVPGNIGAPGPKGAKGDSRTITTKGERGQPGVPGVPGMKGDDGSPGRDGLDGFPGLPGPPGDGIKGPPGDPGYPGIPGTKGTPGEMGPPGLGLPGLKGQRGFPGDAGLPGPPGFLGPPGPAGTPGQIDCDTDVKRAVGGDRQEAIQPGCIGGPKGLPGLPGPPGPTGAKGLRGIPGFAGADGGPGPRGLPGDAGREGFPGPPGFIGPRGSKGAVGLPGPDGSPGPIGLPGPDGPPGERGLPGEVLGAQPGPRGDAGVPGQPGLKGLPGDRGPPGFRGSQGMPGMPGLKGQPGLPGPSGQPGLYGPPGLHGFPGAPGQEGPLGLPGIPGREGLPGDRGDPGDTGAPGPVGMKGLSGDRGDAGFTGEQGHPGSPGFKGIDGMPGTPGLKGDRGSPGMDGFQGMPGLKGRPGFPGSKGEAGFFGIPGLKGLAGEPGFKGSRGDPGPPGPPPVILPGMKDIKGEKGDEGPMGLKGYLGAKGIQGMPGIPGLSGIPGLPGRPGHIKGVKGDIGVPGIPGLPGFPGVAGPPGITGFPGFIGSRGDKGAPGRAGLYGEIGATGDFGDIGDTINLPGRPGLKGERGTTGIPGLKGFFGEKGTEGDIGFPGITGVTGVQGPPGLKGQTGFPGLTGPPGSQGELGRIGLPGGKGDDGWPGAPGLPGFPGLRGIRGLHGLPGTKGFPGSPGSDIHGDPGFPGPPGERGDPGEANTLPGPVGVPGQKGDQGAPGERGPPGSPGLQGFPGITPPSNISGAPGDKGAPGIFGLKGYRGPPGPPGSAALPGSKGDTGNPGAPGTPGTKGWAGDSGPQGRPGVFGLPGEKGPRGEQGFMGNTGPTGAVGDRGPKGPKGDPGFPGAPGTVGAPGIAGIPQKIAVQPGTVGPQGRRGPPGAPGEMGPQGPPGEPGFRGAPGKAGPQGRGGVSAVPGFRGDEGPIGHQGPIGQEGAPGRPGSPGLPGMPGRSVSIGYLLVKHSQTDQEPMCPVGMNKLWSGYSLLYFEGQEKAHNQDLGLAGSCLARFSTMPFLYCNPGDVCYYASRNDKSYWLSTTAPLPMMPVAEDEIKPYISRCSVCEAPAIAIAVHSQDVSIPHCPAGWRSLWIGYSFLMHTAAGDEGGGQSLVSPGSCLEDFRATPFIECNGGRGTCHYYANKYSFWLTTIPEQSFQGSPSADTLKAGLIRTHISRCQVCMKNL

B1: FOG1-A: recombinant protein, the first 134 amino acids of the mature FOG protein (protein, listed as Streptococcus sp.)
chain: DRWKAQTEEARTDKLIAGFANLDADVTNLGKMMDELQKLKDFSKQNNSIGEYARYLQKLNDQFQEYYEQVVGDDSRRVLAKELAKNTELNEKLSELSTTSQALAKELQEQKENYDLVK
interaction with immobilized collagen IV [1]: concentration dependent interaction | titers of anti-collagen antibodies in ELISA [2]: Substantially higher titers

— patent US8956612B2, “Peptide associated with rheumatic fever (PARF) and its use as a diagnostic marker” (Helmholtz-Zentrum für Infektionsforschung GmbH, priority 2006, dated 2015)
